The data set concerns mouse SCN1A with an Arg(R)-to-TGA PTC (R1407X) and 3×FLAG tag. Briefly: Rescue of full-length SCN1A protein expression, anti-FLAG Western blot, Flp-In-293 cells (FIGS. 37-39). In kind it is cell-based, human. From the text: FIG. 37A is a Western blot depicting rescue of full-length SCN1A protein expression by a suppressor tRNA. Flp-In-293 cells were transfected with an expression construct containing mouse SCN1A with an Arg(R)-to-TGA PTC (R1407X) and a 3×FLAG tag peptide (DYKDHD-G-DYKDHD-I-DYKDDDDK) at the C-terminus (SEQ ID NO: 899) (“SCN1a (R1407*)”) and either (i) co-transfected with an expression construct containing the ArgTCA suppressor tRNA #115 (SEQ ID NO: 18) (“Arg>TGA #115”), or (ii) treated with ataluren at the indicated concentration, (iii) treated with gentamicin at the indication concentration, or (iv) treated with G418 at the indicated concentration. “SCN1a (w.t.)” indicates cells transfected with an expression construct containing wild-type mouse SCN1A and a 3×FLAG tag peptide at the C-terminus (SEQ ID NO: 898). Protein was isolated at 24 hours post transfection and SCN1A was detected using a monoclonal anti-FLAG M2 antibody. Molecular weights based on protein molecular weight markers are indicated to the left of the gel. The intensity of bands corresponding to the size of full-length SCN1A protein was measured using ImageJ and all intensity values were normalized to wild-type SCN1A protein (“SCN1a (w.t.)” lane). Cells co-transfected with expression vectors containing mutant SCN1A and the ArgTCA suppressor tRNA expressed greater than 70% of the full-length SCN1A expressed by cells transfected with an expression construct containing wild-type SCN1A.
FIG. 38A is a Western blot depicting rescue of full-length SCN1A protein expression by suppressor tRNAs. Flp-In-293 cells were co-transfected with (i) an expression construct containing mouse SCN1A with an Arginine-to-TGA PTC (R1407X) and a 3×FLAG tag peptide (DYKDHD-G-DYKDHD-I-DYKDDDDK) at the C-terminus (SEQ ID NO: 899) (“SCN1a (R1407*)”) and (ii) either the #104 ArgTCA suppressor tRNA (SEQ ID NO: 6) (“Sup #104”), the #106 ArgTCA suppressor tRNA (SEQ ID NO: 8) (“Sup #106”), or the ArgTCA suppressor tRNA #115 (SEQ ID NO: 18) (“Sup #115”). “SCN1a (w.t.)” indicates cells transfected with an expression construct containing wild-type mouse SCN1A and a 3×FLAG tag peptide at the C-terminus (SEQ ID NO: 898). Protein was isolated at 24 hours post transfection and SCN1A was detected using a monoclonal anti-FLAG M2 antibody. Molecular weights based on protein molecular weight markers are indicated to the left of the gel. The intensity of bands corresponding to the size of full-length SCN1A protein was measured using ImageJ and all intensity values were normalized to wild-type SCN1A protein (“SCN1a (w.t.)” lane). Cells co-transfected with expression vectors containing mutant SCN1A and the ArgTCA suppressor tRNA expressed greater than 30% (Sup #104), greater than 60% (Sup #106), or greater than 70% (Sup #115) of the full-length SCN1A expressed by cells transfected with an expression construct containing wild-type SCN1A.
FIG. 39A is a Western blot depicting rescue of full-length SCN1A protein expression by a suppressor tRNA. Flp-In-293 cells were cultured in 6-well cell culture plates and co-transfected with (i) an expression construct containing mouse SCN1A with an Arginine-to-TGA PTC (R1407X) and a 3×FLAG tag peptide (DYKDHD-G-DYKDHD-I-DYKDDDDK) at the C-terminus (SEQ ID NO: 899) (“SCN1a (R1407*)”) and (ii) the ArgTCA suppressor tRNA #115 (SEQ ID NO: 18) (“Arg>TGA #115”) at the indicated concentrations. 1× indicates 400 ng of the ArgTCA suppressor tRNA construct per well, 0.3× indicates 133 ng of the ArgTCA suppressor tRNA construct per well, 0.1× indicates 40 ng of the ArgTCA suppressor tRNA construct per well, and 0.03× indicates 13 ng of the ArgTCA suppressor tRNA construct per well. “SCN1a (w.t.)” indicates cells transfected with an expression construct containing wild-type mouse SCN1A and a 3×FLAG tag peptide at the C-terminus (SEQ ID NO: 898). Protein was isolated at 24 hours post transfection and SCN1A was detected using a monoclonal anti-FLAG M2 antibody. […]

“Also recorded” adds a separate entry of the source.

B1: tRNA-Arg-TCT-2-1-TCA-SUP_no intron (nucleic acid)
chain: GGCTCCGTGGCGCAATGGATAGCGCATTGGACTTCAAATTCAAAGGTTCCGGGTTCGAGTCCCGGCGGAGTCG
modifications: chemistry not fully specified
Turning to B1, the “rescue of full-length SCN1A protein expression over dose range” value (13 to 400 ng suppressor tRNA construct per well, 6-well plate (FIG. 39)) is “able to rescue full-length SCN1A protein expression over a broad dose range”. Also, the “full-length SCN1A expressed, relative to cells transfected with wild-type SCN1A construct” value (Flp-In-293, 24 hours post transfection, Western blot band intensity (ImageJ) normalized to wild-type SCN1A) is listed as “greater than 70%”. For the same molecule, for the setting “Flp-In-293, SCN1A R1407X-3×FLAG, Western blot, 24 hours post transfection”, the “rescue of full-length SCN1A protein expression” value is listed as “able to rescue full-length SCN1A protein expression; also recorded: rescued full-length SCN1A protein expression”.
